Measurements taken from patent publication US11638741B2, “Composition for treating cancer or inhibiting cancer metastasis, including TFG or TFMG nanoparticles” (KYUNGPOOK NATIONAL UNIVERSITY INDUSTRY-ACADEMIC COOPERATION …, priority 2019, dated 2023).

Columns and labels:
[1] = tested on: Lewis lung carcinoma (LLC); test: Enhancement of cisplatin treatment effects in LLC allograft model (tumor size, survival); format: in vivo, C57BL/6J mice; conditions: for inhibiting the growth of the tumor: nanoparticles 100 nM (days 7, 10, 13) administered together with cisplatin 3 mg/kg (days 7, 12), on day 13
Protocol: In order to confirm whether the treatment effects of a conventionally used anticancer agent may be enhanced by normalizing abnormal blood vessels in a tumor, 100 nM of the TFG nanoparticles or TFMG nanoparticles was injected into the tail vein in a tumor animal model prepared in the same manner as in Example 2.1 on days 7, 10, and 13, cisplatin was injected at a concentration of 3 mg/kg on days 7 and 12, and the survival proportion was measured. An equal amount of phosphate buffered saline was injected into a negative control (Con), and an equal amount of cisplatin was injected alone into a positive control (Cis). Then, the tumor size was confirmed by obtaining tumors on days 9, 11, and 13. The results are illustrated in FIGS. 8 and 9.

[2] = tested on: naturally occurring tumor model (MMTV-PyMT gene transplanted mice); test: Inhibition of tumor metastasis in naturally occurring tumor model; format: in vivo; conditions: compared to the control; 100 nM into tail veins at 12 weeks, confirmed at 15 weeks
Source text: The results are illustrated in FIG. 12.

[3] = tested on: Lewis lung carcinoma (LLC); test: Inhibition of tumor metastasis into lungs and inguinal lymph nodes, LLC allograft model after tumor removal surgery; format: in vivo, C57BL/6J mice; conditions: compared with the control; for lymph node metastasis inhibition rate: inguinal lymph nodes, IHC, day 28; for metastasis of the tumor into the lungs inhibited: tumor removal surgery day 14, metastasis confirmed day 28
Protocol: In order to confirm whether the TFG nanoparticles or TFMG nanoparticles affected the inhibition of metastasis of tumor, a tumor animal model was prepared in the same manner as in Example 2.1, and then the TFG nanoparticles or TFMG nanoparticles were injected. Then, a tumor removal surgery was performed on day 14, and it was confirmed whether the tumor metastasized into the lungs and the inguinal lymph nodes (LNs) on day 28. The metastasis into the inguinal lymph nodes was confirmed using immunohistochemistry (IHC) analyses. More specifically, the lymph nodes obtained to confirm cytokeratin positive tumor cells were fixed with 3.7% paraformaldehyde (PFA), and then dehydrated by treatment with a 10 to 40% sucrose solution at each step. Then, after the permeability of cells was increased by treatment with 0.3% Triton X-100 and a blocking process was performed using a bovine serum albumin (BSA), the lymph nodes were treated with rat anti-CD31 (BD Biosciences), mouse anti-α-SMA (Abcam), mouse anti-pimonidazole (HPI), mouse anti-cytokeratin II (Millipore), or rabbit anti-LYVE-1 (Angiobio) antibodies, and reacted at 4° C. for 16 hours. Then, unbound antibodies were washed using phosphate buffered saline, and then treated with Alexa Fluor 488-, 568-, or 647-conjugated anti-mouse IgG (Invitrogen), Alexa Fluor 594- or 647-conjugated anti-rat IgG (Invitrogen), Alexa Fluor 488-, 568-, or 647-conjugated anti-rabbit IgG (Invitrogen) antibodies that were secondary antibodies to a fluorescent marker, and reacted at room temperature for 1 hour. Then, finally, cellular nuclei were stained by treatment with Hoechst33258 (Invitrogen) for 1 minute, and then observed using a confocal microscope, and a fluorescence value was quantified using ImageJ. In order to show a significant difference between the corresponding groups in at least 3 of all the experimental result values, an ANOVA verification was performed, and only values with statistical significance of P-values <0.05 were shown as the average value±standard deviations (SD). The results are illustrated in FIGS. 4 to 5.

[4] = tested on: Lewis lung carcinoma (LLC); test: Inhibition of tumor proliferation and survival in LLC allograft tumor animal model; format: in vivo, C57BL/6J mice; conditions: 100 nM into the tail vein on days 7, 10, 13; for survival proportion: FIG. 3; for tumor growth inhibition effect: compared with the control, tumor obtained on day 14
Protocol: In order to confirm the effects of the TFG nanoparticles or TFMG nanoparticles on the proliferation of cancer cells, after a tumor animal model was prepared by allografting 2 to 5×10^5 cells of Lewis lung carcinoma (LLC) as a murine lung cancer cell line into 6- to 7-week-old C57BL/6J mice, 100 nM of the TFG nanoparticles or TFMG nanoparticles was injected into the tail vein on days 7, 10, and 13, and then the size and survival proportion of the tumor were observed by obtaining the tumor on day 14. The tumor size was measured by substitution into the formula “0.5×A×B^2 (A: diameter in the longest direction, and B: diameter in a direction vertical to the longest direction).” An equal amount of phosphate buffered saline was administered to a control (Con). Animal care and all experimental procedures were performed in accordance with the laws and regulations for animal experiments. In order to show a significant difference between the corresponding groups in at least 3 of all the experimental result values, an ANOVA verification was performed, and only values with statistical significance of P-values <0.05 were shown as the average value±standard deviations (SD). The results are illustrated in FIGS. 1 to 3.

[5] = tested on: naturally occurring tumor model (MMTV-PyMT gene transplanted mice); test: Inhibition of tumor proliferation in naturally occurring tumor model; format: in vivo; conditions: 100 nM into tail veins of 12-week-old mice; tumors obtained at 15 weeks
Protocol: More specifically, the sizes of all the distinct nodules of 12-week-old mice were measured, and the mice were grouped according to the sizes of the tumors. Then, 100 nM of the TFG nanoparticles or TFMG nanoparticles was injected into their tail veins, and the tumors were obtained when the mice became 15 weeks old. Then, the sizes of the tumors were measured in the same manner as in Example 2.1. The results are illustrated in FIG. 11.

[6] = tested on: blood vessels in a tumor (Lewis lung carcinoma (LLC)); test: Structure and function of blood vessels in LLC tumor (IHC, pimonidazole hypoxia staining); format: in vivo, C57BL/6J mice; conditions: FIG. 7
Protocol: The structure and function of blood vessels in a tumor were analyzed using the tumor obtained in the same manner as in Example 2.1. More specifically, the obtained tumor was observed using a confocal microscope after fluorescent staining was performed through IHC analyses in the same manner as in Example 2.2. In order to measure the hypoxic state inside the tumor, 60 mg/kg of Hypoxyprobe-1™ (pimonidazole hydrochloride; PIMO, HPI) was administered through intraperitoneal injection, and 90 minutes later, the mouse was sacrificed and the tumor extracted. The extracted tumor was incised, and then stained with mouse anti-hypoxyprobe antibody (HPI), Alexa Fluor 488-, 568-, or 647-conjugated anti-mouse IgG (Invitrogen), and in order to measure the degree of leakage of blood vessels in the tumor, 40 mg/kg of Hoechst33258 (Invitrogen) was intravenously injected 5 minutes before the mouse was sacrificed. The prepared sample was obtained using a confocal microscope. The results are illustrated in FIGS. 6 and 7.

| Molecule | growth of the tumor inhibited ([1]; cisplatin administered alone, 3 mg/kg on days 7 and 12 (positive control)) [%] | inhibiting the growth of the tumor [1] [%] | metastasis inhibition rate [2] [%] | lymph node metastasis inhibition rate [3] [%] | metastasis of the tumor into the lungs inhibited [3] [%] | survival proportion [4] | tumor growth inhibition effect [4] [%] | number of nodules with tumors decreased [5] [%] | sizes of the tumors decreased [5] [%] | blood vessels covered with α-smooth muscle actin positive pericytes [6] |
| --- | --- | --- | --- | --- | --- | --- | --- | --- | --- | --- |
| N.N.[Cl][Pt][Cl] [cisplatin, reference compound] | 62.6 | – | – | – | – | – | – | – | – | – |
| TFMG nanoparticles: a TRAP-ferritin monomer fragment-linker-PC-Gla fusion polypeptide; a polypeptide represented by SEQ ID NO: 2 (protein, nanoparticle assembly; TFMG nanoparticle) MGGTTFLLRNASGHMSSQIRQNYSTDVEAAVNSLVNLYLQASYTYLSLGFYFDRDDVALEGVSHFFRELAEEKREGYERLLKMQNQRGGRIFLQDIKKPAEDEWGKTPDAMKAAMALEKKLNQALLDLHALGSARTDPHLCDFLETHFLDEEVKLIKKMGDHLTNLHRLGGGSEFVDGGGSGTSGPLGLAGANSFLEELRHSSLERECIEEICDFEEAKEIFQNVDDTLAFWSKHVLEHHHHHH | – | 94.3 | 93.6 | 78.1 | 86.4 | increased | 27.0 | 59 | 87.2 | increased |
| TFG nanoparticles: a TRAP-ferritin monomer fragment-PC-Gla fusion polypeptide; a polypeptide represented by SEQ ID NO: 1 (protein, nanoparticle assembly; TFG nanoparticle) MGGTTFLLRNASGHMSSQIRQNYSTDVEAAVNSLVNLYLQASYTYLSLGFYFDRDDVALEGVSHFFRELAEEKREGYERLLKMQNQRGGRIFLQDIKKPAEDEWGKTPDAMKAAMALEKKLNQALLDLHALGSARTDPHLCDFLETHFLDEEVKLIKKMGDHLTNLHRLGGGSEFVDGGGSGTSANSFLEELRHSSLERECIEEICDFEEAKEIFQNVDDTLAFWSKHVLEHHHHHH | – | 96.2 | 93.6 | 76.9 | 83.4 | increased | 28.2 | 39.1 | 85 | increased |
